Here are results for 7 molecules from article PMC7984243, “Mechanistic characterization of UDP‐glucuronic acid 4‐epimerase” (The Febs Journal, 2020).

Data set [1] concerns the target T1, BcUGAepi (UDP-glucuronic acid 4-epimerase) (Bacillus cereus group, UniProt Z9OZ01HDE8).
T1 construct: C-terminal Strep-tag kept; synthetic gene in pET17b; expressed in E. coli Lemo21(DE3); monomer 37003 g/mol
The experiment in a line: HPLC of cofactor released from denatured enzyme. It counts as binding.

Data set [2] deals with BcUGAepi (UDP-glucuronic acid 4-epimerase). To be noted: tightly bound cofactor of the isolated enzyme.
Another data set has as its target Tyr149 (UniProt position 149, TPQSPYGKSKL). Briefly: kinetics. To be noted: cited from earlier work.
Data set [3] concerns BcUGAepi (UDP-glucuronic acid 4-epimerase). To be noted: 1 mM UDP-GlcA; 135 µM enzyme; 100 µM NAD+; pH 7.6; 23 °C.
For data set [4], the system named is O=C(O)[C@H]1O[C@H](OP(=O)(O)OP(=O)(O)OC[C@H]2O[C@@H](n3ccc(=O)[nH]c3=O)[C@H](O)[C@@H]2O)[C@H](O)[C@@H](O)[C@@H]1O. The experiment in a line: purified protein. To be noted: forward epimerization, 50 µM NAD+, 50 mM sodium phosphate, 100 mM NaCl, pH 7.6, room temperature (23 °C).
Data set [5] has as its system O=C(O)[C@H]1O[C@H](OP(=O)(O)OP(=O)(O)OC[C@H]2O[C@@H](n3ccc(=O)[nH]c3=O)[C@H](O)[C@@H]2O)[C@H](O)[C@@H](O)[C@H]1O. The experiment in a line: purified protein. To be noted: reverse epimerization, 50 µM NAD+, 50 mM sodium phosphate, 100 mM NaCl, pH 7.6, room temperature (23 °C).
For data set [6], the target named is UDP-glucuronic acid 4-epimerase from Bacillus cereus HuA2-4 (Bacillus cereus HuA2-4). The experiment in a line: SEC; gel filtration of the isolated protein (HiLoad 16/60 Superdex 200, calibrated with a gel filtration standard mixture); details in the Supporting information. (SEC sorts molecules by how far they enter the pores of the column.)
The next data set concerns the target Tyr149 (position 149, …). Briefly: kinetics. To be noted: 23 °C, 50 mM Na2HPO4, 100 mM NaCl, pH adjusted with NaOH or HCl, Enzyme-NAD+ with saturating UDP-GlcA (1 mM) and 100 µM added NAD+. The kcat profile reports on the enzyme/NAD+/UDP-GlcA complex.

As for `NC(=O)c1ccc[n+]([C@@H]2O[C@H](COP(=O)(O)OP(=O)(O)OC[C@H]3O[C@@H](n4cnc5c(N)ncnc54)[C@H](O)[C@@H]3O)[C@@H](O)[C@H]2O)c1` [NAD^+], the “HPLC of cofactor released from denatured enzyme” value in data set [1] (co-purified, tightly bound, one per subunit) is recorded as “we identified the cofactor as NAD, not NADP”. Further, the co-purified cofactor entry in data set [2] was “The purified Y149F variant (Fig. S19) contained protein‐bound NAD^+ as the wild‐type enzyme”.

In the case of “UDP-galactose 4-epimerase (GALE) (Escherichia coli)”, the pKa (commonly the negative logarithm of the acid dissociation constant) with Tyr149 is 6.9.

As to `O=C(O)[C@H]1O[C@H](OP(=O)(O)OP(=O)(O)OC[C@H]2O[C@@H](n3ccc(=O)[nH]c3=O)[C@H](O)[C@@H]2O)[C@H](O)[C@@H](O)[C@@H]1O` [UDP-GlcA], the “HPLC time course of conversion” value in data set [3] was “the Y149F variant converted UDP‐GlcA into UDP‐GalA without trace formation of side products”.

Regarding “BcUGAepi (UDP-glucuronic acid 4-epimerase) (Bacillus cereus group)”, the values for the Km in data set [4] and in data set [5] were 360 ± 20 µM and 890 ± 130 µM, respectively. For the same molecule, the kcat (usually the maximal rate divided by the concentration of active sites) in data set [4] is 0.25 ± 0.01 s⁻¹; in data set [5] it was 0.32 ± 0.02 s⁻¹.

For `NC(=O)C1=CN([C@@H]2O[C@H](COP(=O)(O)OP(=O)(O)OC[C@H]3O[C@@H](n4cnc5c(N)ncnc54)[C@H](O)[C@@H]3O)[C@@H](O)[C@H]2O)C=CC1` [NADH], in data set [1] (minor co-purified reduced form of the bound cofactor), the “HPLC of cofactor released from denatured enzyme” value is on record as “NADH was also present, the content varying slightly”.

With “UDP-glucuronic acid 4-epimerase from Bacillus cereus HuA2-4 (enzyme)”, the stoichiometry N (commonly the number of molecules, sites or subunits per partner or assembly) in data set [6] is 2.

B1: UDP-glucuronic acid 4-epimerase (BcUGAepi) (Bacillus cereus HuA2-4) (protein)
chain: MKILVTGAAGFIGSHLCQALLKNSAYHVVGIDHFIGPTPATLKTGNIQSLELNSRFQFIREDILNTDLSKLLQDIDVVYHLAAIPGVRTSWGKDFQPYVTNNIMVTQQLLEACKHIKLDKFIHISTSSVYGEKSGAVSEDLLPIPLSPYGVTKLSGEHLCHVYHKNFHIPIVILRYFTVYGPRQRPDMAFHRLIKQMLEDKPLTIFGDGTQTRDFTYIDDCIRGTVAALETKKNIIGEVINIGGKEQASILDIISMLEKISGKSATKNFLKSVPGEPKQTWADISKASTLLQYSPTVSLSDGLEAEYDYIKQLYKGDAAWSHPQFEK
With B1, in the data set with Tyr149 (position 149, …), the pKa is 5.90 (±0.05).
